The results in this text go back to US20150344570A1 (published 2015).

Sequences and labels used below:
T1: FcγRIIa R (extracellular domain, His tag at the C terminus) (human, UniProt P12318 34-217)
T1 construct: extracellular domain; Soluble analyte in Biacore; also called FcgRIIa R type; 2aR
T1 sequence (looked up): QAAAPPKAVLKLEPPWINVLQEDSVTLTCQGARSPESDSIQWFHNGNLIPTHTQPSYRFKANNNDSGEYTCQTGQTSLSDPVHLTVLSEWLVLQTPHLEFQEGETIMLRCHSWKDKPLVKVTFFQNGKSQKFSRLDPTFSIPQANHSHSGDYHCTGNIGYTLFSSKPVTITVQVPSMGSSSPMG

B1: GpH7-B3 variant L328_04F/GpL16-k0 (antibody, human IgG1, kappa)
heavy: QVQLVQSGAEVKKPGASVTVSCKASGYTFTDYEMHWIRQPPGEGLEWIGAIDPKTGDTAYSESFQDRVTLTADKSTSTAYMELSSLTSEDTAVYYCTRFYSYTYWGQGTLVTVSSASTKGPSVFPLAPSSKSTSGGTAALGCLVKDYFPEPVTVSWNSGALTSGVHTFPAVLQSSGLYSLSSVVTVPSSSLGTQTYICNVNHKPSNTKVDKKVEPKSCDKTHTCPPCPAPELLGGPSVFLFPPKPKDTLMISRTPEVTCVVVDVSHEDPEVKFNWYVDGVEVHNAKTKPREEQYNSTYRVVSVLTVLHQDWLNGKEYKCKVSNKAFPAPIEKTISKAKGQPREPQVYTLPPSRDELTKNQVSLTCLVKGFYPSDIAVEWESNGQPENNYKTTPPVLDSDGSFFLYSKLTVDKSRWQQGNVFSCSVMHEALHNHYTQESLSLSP
light: DIVMTQSPLSLPVTPGEPASISCQASESLVHSNRNTYLHWYLQKPGQSPQLLIYKVSNRFSGVPDRFSGSGSGTDFTLKISRVEAEDVGVYYCSQNTHVPPTFGQGTKVEIERTVAAPSVFIFPPSDEQLKSGTASVVCLLNNFYPREAKVQWKVDNALQSGNSQESVTEQDSKDSTYSLSSTLTLSKADYEKHKVYACEVTHQGLSSPVTKSFNRGEC
notes: homodimerized; also called Ho Ab
B2: GpH7-B3 variant T335_19Q/GpL16-k0 (antibody, human IgG1, kappa)
heavy: not shown
light: B1 light
notes: as for B1
B3: GpH7-B3 variant P238_08L/GpL16-k0 (antibody, human IgG1, kappa)
heavy: not shown
light: B1 light
notes: as for B1
B4: GpH7-B3 variant L328_15Y/GpL16-k0 (antibody, human IgG1, kappa)
heavy: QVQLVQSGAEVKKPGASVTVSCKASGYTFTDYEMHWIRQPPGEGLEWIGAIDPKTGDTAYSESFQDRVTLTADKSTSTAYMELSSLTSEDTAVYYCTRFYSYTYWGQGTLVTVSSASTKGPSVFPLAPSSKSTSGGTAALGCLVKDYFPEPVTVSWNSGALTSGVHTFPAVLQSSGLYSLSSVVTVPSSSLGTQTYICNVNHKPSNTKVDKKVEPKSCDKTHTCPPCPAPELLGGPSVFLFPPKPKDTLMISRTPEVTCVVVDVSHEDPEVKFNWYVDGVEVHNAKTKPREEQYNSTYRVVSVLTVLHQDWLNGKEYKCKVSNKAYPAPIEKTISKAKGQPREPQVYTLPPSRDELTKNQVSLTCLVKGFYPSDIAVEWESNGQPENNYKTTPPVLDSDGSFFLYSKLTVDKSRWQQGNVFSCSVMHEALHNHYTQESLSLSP
light: B1 light
notes: as for B1
B5: GpH7-B3 variant T335_16H/GpL16-k0 (antibody, human IgG1, kappa)
heavy: not shown
light: B1 light
notes: as for B1
B6: GpH7-B3 variant P271_01G/GpL16-k0 (antibody, human IgG1, kappa)
heavy: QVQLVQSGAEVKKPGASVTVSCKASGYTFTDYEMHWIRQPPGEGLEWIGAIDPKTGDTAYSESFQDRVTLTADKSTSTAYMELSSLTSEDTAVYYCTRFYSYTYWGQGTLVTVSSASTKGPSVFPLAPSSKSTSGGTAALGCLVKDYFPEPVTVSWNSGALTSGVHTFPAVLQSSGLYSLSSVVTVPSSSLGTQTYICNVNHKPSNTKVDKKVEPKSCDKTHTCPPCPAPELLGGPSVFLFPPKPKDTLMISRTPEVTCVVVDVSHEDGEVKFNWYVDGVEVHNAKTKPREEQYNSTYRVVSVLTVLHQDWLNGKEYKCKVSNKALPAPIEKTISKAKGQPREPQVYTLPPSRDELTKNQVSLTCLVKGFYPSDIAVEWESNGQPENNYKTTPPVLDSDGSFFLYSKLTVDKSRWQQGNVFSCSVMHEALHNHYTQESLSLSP
light: B1 light
notes: as for B1
B7: GpH7-B3 variant T335_20W/GpL16-k0 (antibody, human IgG1, kappa)
heavy: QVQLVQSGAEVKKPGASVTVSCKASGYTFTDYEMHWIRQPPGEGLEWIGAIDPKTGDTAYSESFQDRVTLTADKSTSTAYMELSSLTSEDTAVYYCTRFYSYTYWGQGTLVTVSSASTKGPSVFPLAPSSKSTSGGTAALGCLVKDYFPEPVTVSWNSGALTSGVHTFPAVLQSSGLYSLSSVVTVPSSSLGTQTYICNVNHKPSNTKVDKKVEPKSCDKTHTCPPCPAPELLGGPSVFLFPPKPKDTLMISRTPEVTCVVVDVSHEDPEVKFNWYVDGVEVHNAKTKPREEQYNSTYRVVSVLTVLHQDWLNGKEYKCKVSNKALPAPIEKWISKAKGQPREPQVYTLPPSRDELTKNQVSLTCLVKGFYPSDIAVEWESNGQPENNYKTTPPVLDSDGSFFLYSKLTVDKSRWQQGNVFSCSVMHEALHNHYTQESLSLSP
light: B1 light
notes: as for B1
B8: GpH7-B3 variant T335_09D/GpL16-k0 (antibody, human IgG1, kappa)
heavy: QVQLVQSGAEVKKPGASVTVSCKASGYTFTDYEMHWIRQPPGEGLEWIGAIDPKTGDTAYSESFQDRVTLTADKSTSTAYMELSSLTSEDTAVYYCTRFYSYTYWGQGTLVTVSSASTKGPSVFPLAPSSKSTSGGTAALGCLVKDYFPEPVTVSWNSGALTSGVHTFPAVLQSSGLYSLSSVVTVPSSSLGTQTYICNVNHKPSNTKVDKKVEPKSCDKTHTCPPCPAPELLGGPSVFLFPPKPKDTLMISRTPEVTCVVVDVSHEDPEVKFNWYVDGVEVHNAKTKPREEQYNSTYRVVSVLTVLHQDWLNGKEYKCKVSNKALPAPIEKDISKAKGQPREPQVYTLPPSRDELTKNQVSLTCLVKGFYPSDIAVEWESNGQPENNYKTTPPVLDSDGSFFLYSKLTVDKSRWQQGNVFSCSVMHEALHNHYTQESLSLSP
light: B1 light
notes: as for B1
B9: GpH7-B3 variant S267_01G/GpL16-k0 (antibody, human IgG1, kappa)
heavy: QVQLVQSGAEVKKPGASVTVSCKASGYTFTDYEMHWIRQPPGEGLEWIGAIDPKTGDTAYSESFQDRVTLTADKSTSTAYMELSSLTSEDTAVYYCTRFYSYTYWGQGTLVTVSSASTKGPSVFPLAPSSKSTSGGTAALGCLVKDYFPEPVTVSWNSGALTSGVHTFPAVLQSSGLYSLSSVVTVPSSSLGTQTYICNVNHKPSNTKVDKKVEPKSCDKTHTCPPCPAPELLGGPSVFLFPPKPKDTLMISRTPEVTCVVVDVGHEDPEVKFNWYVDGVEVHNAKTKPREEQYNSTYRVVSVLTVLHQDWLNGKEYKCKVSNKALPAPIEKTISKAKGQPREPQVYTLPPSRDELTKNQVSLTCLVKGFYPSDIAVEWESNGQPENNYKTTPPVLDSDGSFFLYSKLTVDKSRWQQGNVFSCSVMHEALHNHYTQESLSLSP
light: B1 light
notes: as for B1
B10: GpH7-B3 variant V266_06M/GpL16-k0 (antibody, human IgG1, kappa)
heavy: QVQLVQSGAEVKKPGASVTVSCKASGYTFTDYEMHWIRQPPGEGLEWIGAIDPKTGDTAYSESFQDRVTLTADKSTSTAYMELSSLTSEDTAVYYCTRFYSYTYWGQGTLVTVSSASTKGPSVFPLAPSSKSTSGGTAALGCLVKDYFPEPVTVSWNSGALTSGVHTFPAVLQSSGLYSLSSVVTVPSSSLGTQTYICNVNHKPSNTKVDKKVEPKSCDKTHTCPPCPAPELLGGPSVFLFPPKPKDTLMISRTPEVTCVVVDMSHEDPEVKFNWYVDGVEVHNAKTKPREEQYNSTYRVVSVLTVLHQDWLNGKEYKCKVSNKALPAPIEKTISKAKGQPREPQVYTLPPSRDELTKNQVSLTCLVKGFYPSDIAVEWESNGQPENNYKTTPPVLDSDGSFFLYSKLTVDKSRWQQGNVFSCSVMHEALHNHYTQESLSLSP
light: B1 light
notes: as for B1
B11: GpH7-B3 variant Y296_20W/GpL16-k0 (antibody, human IgG1, kappa)
heavy: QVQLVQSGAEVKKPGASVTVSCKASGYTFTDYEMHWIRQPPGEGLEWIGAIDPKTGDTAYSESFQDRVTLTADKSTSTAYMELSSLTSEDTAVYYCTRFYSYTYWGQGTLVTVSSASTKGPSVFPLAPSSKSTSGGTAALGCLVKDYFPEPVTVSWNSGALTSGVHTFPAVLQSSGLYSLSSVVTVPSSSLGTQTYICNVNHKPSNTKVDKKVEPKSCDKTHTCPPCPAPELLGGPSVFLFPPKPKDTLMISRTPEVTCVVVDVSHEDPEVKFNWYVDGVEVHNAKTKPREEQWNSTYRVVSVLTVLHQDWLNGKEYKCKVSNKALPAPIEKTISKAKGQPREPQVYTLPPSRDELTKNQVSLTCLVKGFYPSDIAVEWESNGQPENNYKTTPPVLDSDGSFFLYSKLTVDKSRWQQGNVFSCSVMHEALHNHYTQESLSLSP
light: B1 light
notes: as for B1
B12: GpH7-B3 variant S337_14T/GpL16-k0 (antibody, human IgG1, kappa)
heavy: not shown
light: B1 light
notes: as for B1
B13: GpH7-B3 variant S267_07I/GpL16-k0 (antibody, human IgG1, kappa)
heavy: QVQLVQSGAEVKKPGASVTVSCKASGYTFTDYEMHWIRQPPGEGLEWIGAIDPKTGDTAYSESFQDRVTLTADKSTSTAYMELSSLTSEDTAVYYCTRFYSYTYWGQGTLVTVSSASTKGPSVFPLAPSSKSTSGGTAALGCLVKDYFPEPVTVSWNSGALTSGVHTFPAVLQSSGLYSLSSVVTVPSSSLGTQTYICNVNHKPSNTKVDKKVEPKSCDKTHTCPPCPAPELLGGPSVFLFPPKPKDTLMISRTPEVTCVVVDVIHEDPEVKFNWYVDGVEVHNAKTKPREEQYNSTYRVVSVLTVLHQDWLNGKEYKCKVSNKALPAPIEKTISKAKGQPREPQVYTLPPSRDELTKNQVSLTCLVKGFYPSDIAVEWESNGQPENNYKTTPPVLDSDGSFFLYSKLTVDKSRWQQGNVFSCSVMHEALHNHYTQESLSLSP
light: B1 light
notes: as for B1
B14: GpH7-B3 variant T335_06M/GpL16-k0 (antibody, human IgG1, kappa)
heavy: not shown
light: B1 light
notes: as for B1
B15: GpH7-B3 variant S239_01G/GpL16-k0 (antibody, human IgG1, kappa)
heavy: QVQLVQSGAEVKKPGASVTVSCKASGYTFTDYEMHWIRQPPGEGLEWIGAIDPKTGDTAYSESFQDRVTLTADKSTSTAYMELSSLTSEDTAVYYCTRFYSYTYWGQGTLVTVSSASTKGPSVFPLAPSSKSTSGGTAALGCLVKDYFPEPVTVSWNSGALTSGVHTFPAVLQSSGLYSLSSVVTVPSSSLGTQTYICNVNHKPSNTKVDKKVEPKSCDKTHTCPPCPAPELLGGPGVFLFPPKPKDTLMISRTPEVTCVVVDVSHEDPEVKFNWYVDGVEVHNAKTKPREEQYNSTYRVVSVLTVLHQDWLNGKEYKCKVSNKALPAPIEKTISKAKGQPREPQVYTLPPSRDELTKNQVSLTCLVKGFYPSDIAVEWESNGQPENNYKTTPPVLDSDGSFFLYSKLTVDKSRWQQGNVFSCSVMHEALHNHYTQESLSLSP
light: B1 light
notes: as for B1
B16: GpH7-B3 variant Y300_04F/GpL16-k0 (antibody, human IgG1, kappa)
heavy: not shown
light: B1 light
notes: as for B1
B17: GpH7-B3 variant T335_04F/GpL16-k0 (antibody, human IgG1, kappa)
heavy: not shown
light: B1 light
notes: as for B1
B18: GpH7-B3 variant T335_08L/GpL16-k0 (antibody, human IgG1, kappa)
heavy: not shown
light: B1 light
notes: as for B1
B19: GpH7-B3 variant S239_09D/GpL16-k0 (antibody, human IgG1, kappa)
heavy: not shown
light: B1 light
notes: as for B1
B20: GpH7-B3 variant L328_07I/GpL16-k0 (antibody, human IgG1, kappa)
heavy: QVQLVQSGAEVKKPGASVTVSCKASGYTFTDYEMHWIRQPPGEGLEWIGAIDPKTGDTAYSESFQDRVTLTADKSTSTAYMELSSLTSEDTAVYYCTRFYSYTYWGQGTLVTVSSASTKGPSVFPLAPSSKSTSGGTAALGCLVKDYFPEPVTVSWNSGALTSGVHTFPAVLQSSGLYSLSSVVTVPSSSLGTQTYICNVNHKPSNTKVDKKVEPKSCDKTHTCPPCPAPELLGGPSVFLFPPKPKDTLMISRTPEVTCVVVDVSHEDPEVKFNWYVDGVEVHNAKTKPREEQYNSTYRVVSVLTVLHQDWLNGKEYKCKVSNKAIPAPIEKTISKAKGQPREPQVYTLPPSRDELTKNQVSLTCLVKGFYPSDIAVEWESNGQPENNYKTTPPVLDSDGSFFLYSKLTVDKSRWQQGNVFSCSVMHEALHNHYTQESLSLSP
light: B1 light
notes: as for B1
B21: GpH7-B3 variant T335_18N/GpL16-k0 (antibody, human IgG1, kappa)
heavy: not shown
light: B1 light
notes: as for B1
B22: GpH7-B3 variant S267_02A/GpL16-k0 (antibody, human IgG1, kappa)
heavy: not shown
light: B1 light
notes: as for B1
B23: GpH7-B3 variant L328_06M/GpL16-k0 (antibody, human IgG1, kappa)
heavy: not shown
light: B1 light
notes: as for B1
B24: GpH7-A5/GpH7-B3 variant T335_15Y/GpL16-k0 (antibody, human IgG1, kappa)
heavy 1: not shown
heavy 2: not shown
light: B1 light
notes: heterodimerized; also called He Ab
B25: GpH7-A5/GpH7-B3 variant G236_10E/GpL16-k0 (antibody, human IgG1, kappa)
heavy 1: not shown
heavy 2: not shown
light: B1 light
notes: as for B24
B26: GpH7-A5/GpH7-B3 variant K326_19Q/GpL16-k0 (antibody, human IgG1, kappa)
heavy 1: not shown
heavy 2: not shown
light: B1 light
notes: as for B24
B27: GpH7-A5/GpH7-B3 variant L328_04F/GpL16-k0 (antibody, human IgG1, kappa)
heavy 1: not shown
heavy 2: not shown
light: B1 light
notes: as for B24
B28: GpH7-A5/GpH7-B3 variant K334_03V/GpL16-k0 (antibody, human IgG1, kappa)
heavy 1: not shown
heavy 2: not shown
light: B1 light
notes: as for B24
B29: GpH7-A5/GpH7-B3 variant K334_16H/GpL16-k0 (antibody, human IgG1, kappa)
heavy 1: not shown
heavy 2: not shown
light: B1 light
notes: as for B24
B30: GpH7-A5/GpH7-B3 variant H268_18N/GpL16-k0 (antibody, human IgG1, kappa)
heavy 1: not shown
heavy 2: not shown
light: B1 light
notes: as for B24
B31: GpH7-A5/GpH7-B3 variant K334_15Y/GpL16-k0 (antibody, human IgG1, kappa)
heavy 1: not shown
heavy 2: not shown
light: B1 light
notes: as for B24
B32: GpH7-A5/GpH7-B3 variant K326_14T/GpL16-k0 (antibody, human IgG1, kappa)
heavy 1: not shown
heavy 2: not shown
light: B1 light
notes: as for B24
B33: GpH7-A5/GpH7-B3 variant I332_04F/GpL16-k0 (antibody, human IgG1, kappa)
heavy 1: not shown
heavy 2: not shown
light: B1 light
notes: as for B24
B34: GpH7-A5/GpH7-B3 variant I332_10E/GpL16-k0 (antibody, human IgG1, kappa)
heavy 1: not shown
heavy 2: not shown
light: B1 light
notes: as for B24
B35: GpH7-A5/GpH7-B3 variant L328_03V/GpL16-k0 (antibody, human IgG1, kappa)
heavy 1: not shown
heavy 2: not shown
light: B1 light
notes: as for B24
B36: GpH7-A5/GpH7-B3 variant K326_09D/GpL16-k0 (antibody, human IgG1, kappa)
heavy 1: not shown
heavy 2: not shown
light: B1 light
notes: as for B24
B37: GpH7-A5/GpH7-B3 variant I332_15Y/GpL16-k0 (antibody, human IgG1, kappa)
heavy 1: not shown
heavy 2: not shown
light: B1 light
notes: as for B24
B38: GpH7-A5/GpH7-B3 variant I332_09D/GpL16-k0 (antibody, human IgG1, kappa)
heavy 1: not shown
heavy 2: not shown
light: B1 light
notes: as for B24
B39: GpH7-A5/GpH7-B3 variant L328_07I/GpL16-k0 (antibody, human IgG1, kappa)
heavy 1: not shown
heavy 2: not shown
light: B1 light
notes: as for B24
B40: GpH7-A5/GpH7-B3 variant K326_10E/GpL16-k0 (antibody, human IgG1, kappa)
heavy 1: not shown
heavy 2: not shown
light: B1 light
notes: as for B24
B41: GpH7-A5/GpH7-B3 variant H268_10E/GpL16-k0 (antibody, human IgG1, kappa)
heavy 1: not shown
heavy 2: not shown
light: B1 light
notes: as for B24
B42: GpH7-A5/GpH7-B3 variant H268_13S/GpL16-k0 (antibody, human IgG1, kappa)
heavy 1: not shown
heavy 2: not shown
light: B1 light
notes: as for B24
B43: GpH7-A5/GpH7-B3 variant L328_06M/GpL16-k0 (antibody, human IgG1, kappa)
heavy 1: not shown
heavy 2: not shown
light: B1 light
notes: as for B24
B44: GpH7-A5/GpH7-B3 variant H268_09D/GpL16-k0 (antibody, human IgG1, kappa)
heavy 1: not shown
heavy 2: not shown
light: B1 light
notes: as for B24
B45: GpH7-A5/GpH7-B3 variant K326_06M/GpL16-k0 (antibody, human IgG1, kappa)
heavy 1: not shown
heavy 2: not shown
light: B1 light
notes: as for B24
B46: GpH7-A5/GpH7-B3 variant K334_14T/GpL16-k0 (antibody, human IgG1, kappa)
heavy 1: not shown
heavy 2: not shown
light: B1 light
notes: as for B24
B47: GpH7-A5/GpH7-B3 variant K326_16H/GpL16-k0 (antibody, human IgG1, kappa)
heavy 1: not shown
heavy 2: not shown
light: B1 light
notes: as for B24
B48: GpH7-A5/GpH7-B3 variant K334_07I/GpL16-k0 (antibody, human IgG1, kappa)
heavy 1: not shown
heavy 2: not shown
light: B1 light
notes: as for B24
B49: GpH7-A5/GpH7-B3 variant G236_09D/GpL16-k0 (antibody, human IgG1, kappa)
heavy 1: not shown
heavy 2: not shown
light: B1 light
notes: as for B24
B50: GpH7-A5/GpH7-B3 variant K334_18N/GpL16-k0 (antibody, human IgG1, kappa)
heavy 1: not shown
heavy 2: not shown
light: B1 light
notes: as for B24

The first assay deals with T1, FcγRIIa R (extracellular domain, His …). The assay can be described thus: SPR (Biacore), relative binding, control GpH7-B3/GpL16-k0 = 100. On the procedure: (§1) Analysis of interaction between objective antibody and the FcγR was carried out using Biacore T100 (GE Healthcare). HBS-EP+ (GE Healthcare) was used as the running buffer, and the measurement temperature was set to 25° C. Chips produced by immobilizing the antigen peptide by the amine coupling method to a Series S Sencor Chip CM5 (GE Healthcare), or alternatively, chips produced by allowing preliminarily biotinylated antigen peptides to interact with and immobilize onto a Series S Sensor Chip SA (certified) (GE Healthcare) were used. Antibodies of interest were captured onto an antigen peptide-immobilized chip, and allowed to interact to each FcγR diluted with running buffer. To regenerate and repeatedly use the chip, the antibodies captured on the chip were washed off by reacting 10 mM glycine-HCl, pH 1.5.
With B1, the Ho/Con_2aR was 145 % of control.

Consider B2, for which the Ho/Con_2aR is 102 % of control. The same measure, in the same setting: the figure for B3 is 148 % of control. Same read-out and setting: as for B4, the figure is 157 % of control.

B5: the Ho/Con_2aR is 102 % of control. Still for that read-out and setting: the figure for B6 is 150 % of control.

As to B7, the Ho/Con_2aR was 101 % of control. Consider B8, for which the Ho/Con_2aR was 113 % of control.

Turning to B9, the Ho/Con_2aR was 116 % of control. With B10, the Ho/Con_2aR was 146 % of control. Same read-out and setting: the figure for B11 is 107 % of control; for B12 it is 110 % of control. Same read-out and setting: the figure for B13 is 113 % of control; for B14 it is 107 % of control. Same read-out and setting: the figure for B15 is 132 % of control; for B16 it is 109 % of control; for B17 it is 108 % of control. As to B18, the Ho/Con_2aR was 108 % of control. With B19, the Ho/Con_2aR is 142 % of control. On the same count and under the same terms, as for B20, the figure is 140 % of control; as for B21, 100 % of control.

As for B22, the Ho/Con_2aR is 160 % of control. Same read-out and setting: as for B23, the figure is 124 % of control.

A further assay has the same target. The assay can be described thus: SPR (Biacore), relative binding, control GpH7-A5/GpH7-B3/GpL16-k0 = 100. On the procedure: as §1
As for B24, the He/Con_2aR was 111 % of control.

Take B25: the He/Con_2aR is 125 % of control. The same measure, in the same setting: as for B26, the figure is 129 % of control; as for B27, 138 % of control.

In the case of B28, the He/Con_2aR was 117 % of control. On the same count and under the same terms, as for B29, the figure is 109 % of control; as for B30, 128 % of control; as for B31, 108 % of control. On the same count and under the same terms, as for B32, the figure is 134 % of control; as for B33, 105 % of control.

Take B34: the He/Con_2aR is 114 % of control.

In the case of B35, the He/Con_2aR is 116 % of control. Still for that read-out and setting: the figure for B36 is 148 % of control. Still for that read-out and setting: the figure for B37 is 110 % of control; for B38 it is 119 % of control. On the same count and under the same terms, the figure for B39 is 124 % of control; for B40 it is 148 % of control. As for B41, the He/Con_2aR is 148 % of control. The same measure, in the same setting: the figure for B42 is 127 % of control.

With B43, the He/Con_2aR was 115 % of control.

Take B44: the He/Con_2aR was 149 % of control. Same read-out and setting: the figure for B45 is 138 % of control; for B46 it is 112 % of control.

Turning to B47, the He/Con_2aR was 120 % of control. As for B48, the He/Con_2aR was 114 % of control. Turning to B49, the He/Con_2aR was 106 % of control. Still for that read-out and setting: the figure for B50 is 112 % of control.
